What was measured:
[1] = target: mannose 6-phosphate receptor (M6PR) on K-562 cells; test: cell-based or functional assay
[2] = target: mannose 6-phosphate receptor (M6PR) on K-562 cells; test: flow cytometry on K-562 cells expressing M6PR, detection with HSA-biotin and streptavidin-phycoerythrin
[3] = target: mannose 6-phosphate receptor (M6PR) on K-562 cells; test: flow cytometry on K-562 cells expressing M6PR; reference T028100075-bis-M6P(1x)

Row | internalization potency on K-562 cells, EC50 [M] (HSA-pHAb, flow cytometry) [1] | EC50 [2] [nM] | increase in specific cell binding against the molecule with a single bisM6P (DOL 1) (orders of magnitude) [3] | decrease in internalization potency on K-562 cells against the 3x bis-M6P conjugates [1] [fold] | Binder
1 | 3.86e-09 | 0.143 | > 2 | – | T028100069-bis-M6P(3x) (bispecific antibody, bisM6P-PEG4-maleimide conjugated to the thiols of the three engineered Cys of the ISVD-based building block (Kabat positions 43, 100f and 105 of SEQ ID NO.: 80); DOL by mass spec 2.90) DVQLVESGGGVVQPGGSLRLSCAASGFTFRSFGMSWVRQAPGKGPEWVSSISGSGSDTLYADSVKGRFTISRDNSKNTLYLQMNSLRPEDTALYYCTIGGSLSRSSQGTLVTVSSGGGGSGGGGSGGGGSEVQLVESGGGLVQAGGSLSISCAASGGSLSNYVLGWFRQAPGCEREFVAAINWRGDITIGPPNVEGRFTISRDNAKNTGYLQMNSLAPDDTAVYYCGAGTPLNPGAYIYCWSYDYWGCGTLVTVSS
2 | 2.88e-09 | 0.154 | > 2 | – | T028100070-bis-M6P(3x) (bispecific antibody, bisM6P-PEG4-maleimide conjugated to the thiols of the three engineered Cys of the ISVD-based building block (Kabat positions 43, 75 and 100a of SEQ ID NO.: 81); DOL by mass spec 2.84) DVQLVESGGGVVQPGGSLRLSCAASGFTFRSFGMSWVRQAPGKGPEWVSSISGSGSDTLYADSVKGRFTISRDNSKNTLYLQMNSLRPEDTALYYCTIGGSLSRSSQGTLVTVSSGGGGSGGGGSGGGGSEVQLVESGGGLVQAGGSLSISCAASGGSLSNYVLGWFRQAPGCEREFVAAINWRGDITIGPPNVEGRFTISRDNACNTGYLQMNSLAPDDTAVYYCGAGTPLNPCAYIYDWSYDYWGRGTLVTVSS
3 | 5.64e-08 | – | – | 20 | T028100075-bis-M6P(1x) (bispecific antibody, bisM6P-PEG4-maleimide conjugated to the thiol of the C-terminal Cys (-GGC) of the building block (SEQ ID NO.: 175); DOL by mass spec 1.00) DVQLVESGGGVVQPGGSLRLSCAASGFTFRSFGMSWVRQAPGKGPEWVSSISGSGSDTLYADSVKGRFTISRDNSKNTLYLQMNSLRPEDTALYYCTIGGSLSRSSQGTLVTVSSGGGGSGGGGSGGGGSEVQLVESGGGLVQAGGSLSISCAASGGSLSNYVLGWFRQAPGKEREFVAAINWRGDITIGPPNVEGRFTISRDNAKNTGYLQMNSLAPDDTAVYYCGAGTPLNPGAYIYDWSYDYWGRGTLVTVSSGGC

From patent US20240415974A1
